The values below come from publication PMC3899018, “Biochemical and Structural Studies of Conserved Maf Proteins Revealed Nucleotide Pyrophosphatases with a Preference for Modified Nucleotides” (Chemistry & Biology, 2013).

What all share (experiment): pyrophosphatase-coupled Pi release assay
Substrate in data set [1]: Nc1nc2c([nH]c(=O)n2[C@@H]2O[C@H](CO[P@@](=O)(O)O[P@@](=O)(O)OP(=O)(O)O)[C@@H](O)[C@H]2O)c(=O)[nH]1
It is filed as biochemical, Homo sapiens. The conditions noted are these: 2 mM Co2+, 37°C. From the text:
(§1) pyrophosphatase-coupled Pi release assay on ASMTL-Maf

Substrate in data set [2]: Nc1ccn([C@@H]2O[C@H](COP(=O)(O)OP(=O)(O)OP(=O)(O)O)[C@@H](O)[C@H]2O)c(=O)n1
It is filed as biochemical, Homo sapiens. The conditions noted are these: 2 mM Co2+, 37°C.
Excerpt: as §1

Substrate in data set [3]: Cc1cn([C@@H]2O[C@H](COP(=O)(O)OP(=O)(O)OP(=O)(O)O)[C@@H](O)[C@H]2O)c(=O)[nH]c1=O
It counts as biochemical, Homo sapiens. The conditions noted are these: 2 mM Co2+, 37°C.
Excerpt: as §1

Substrate in data set [4]: CNc1ccn([C@H]2C[C@H](O)[C@@H](COP(=O)(O)OP(=O)(O)OP(=O)(O)O)O2)c(=O)n1
It is filed as biochemical, Homo sapiens. The settings on record: 2 mM Co2+, 37°C.
Excerpt: as §1

Substrate in data set [5]: Cc1cn([C@@H]2O[C@H](COP(=O)(O)OP(=O)(O)OP(=O)(O)O)[C@@H](O)[C@H]2O)c(=O)[nH]c1=O
It is filed as biochemical, Escherichia coli. The conditions noted are these: 2 mM Co2+, 37°C. An excerpt: (§2) pyrophosphatase-coupled Pi release assay on YhdE

Substrate in data set [6]: Cc1cn([C@@H]2O[C@H](COP(=O)(O)OP(=O)(O)OP(=O)(O)O)[C@@H](O)[C@H]2O)c(=O)nc1N
It is filed as biochemical, Escherichia coli. The conditions noted are these: 2 mM Co2+, 37°C.
Excerpt: as §2

Substrate in data set [7]: Cc1cn([C@H]2C[C@H](O)[C@@H](COP(=O)(O)OP(=O)(O)OP(=O)(O)O)O2)c(=O)[nH]c1=O
It is filed as biochemical, Escherichia coli. The settings on record: 2 mM Co2+, 37°C.
Excerpt: as §2

Substrate in data set [8]: O=c1[nH]cc([C@@H]2O[C@H](COP(=O)(O)OP(=O)(O)OP(=O)(O)O)[C@@H](O)[C@H]2O)c(=O)[nH]1
It counts as biochemical, Escherichia coli. The settings on record: 2 mM Co2+, 37°C.
Excerpt: as §2

Substrate in data set [9]: Cc1cn([C@@H]2O[C@H](COP(=O)(O)OP(=O)(O)OP(=O)(O)O)[C@@H](O)[C@H]2O)c(=O)[nH]c1=O
It counts as biochemical, Saccharomyces cerevisiae. The conditions noted are these: 2 mM Co2+, 30°C. From the text:
(§3) pyrophosphatase-coupled Pi release assay on YOR111W

Substrate in data set [10]: O=c1[nH]cc([C@@H]2O[C@H](COP(=O)(O)OP(=O)(O)OP(=O)(O)O)[C@@H](O)[C@H]2O)c(=O)[nH]1
It counts as biochemical, Saccharomyces cerevisiae. The conditions noted are these: 2 mM Co2+, 30°C.
Excerpt: as §3

Substrate in data set [11]: O=c1ccn([C@@H]2O[C@H](COP(=O)(O)OP(=O)(O)OP(=O)(O)O)[C@@H](O)[C@H]2O)c(=O)[nH]1
It is filed as biochemical, Saccharomyces cerevisiae. The conditions noted are these: 2 mM Co2+, 30°C.
Excerpt: as §3

Substrate in data set [12]: C[n+]1cn([C@@H]2O[C@H](COP(=O)(O)OP(=O)(O)OP(=O)(O)O)[C@@H](O)[C@H]2O)c2nc(N)[nH]c(=O)c21
It counts as biochemical, Escherichia coli. The conditions noted are these: 2 mM Co2+, 37°C. From the text: pyrophosphatase-coupled Pi release assay on YceF

Substrate in data set [13]: Nc1ccn([C@@H]2O[C@H](COP(=O)(O)OP(=O)(O)OP(=O)(O)O)[C@@H](O)[C@H]2O)c(=O)n1
It counts as biochemical, Bacillus subtilis. The settings on record: 2 mM Co2+, 30°C. From the text: (§4) pyrophosphatase-coupled Pi release assay on BSU28050

Substrate in data set [14]: Cc1cn([C@@H]2O[C@H](COP(=O)(O)OP(=O)(O)OP(=O)(O)O)[C@@H](O)[C@H]2O)c(=O)[nH]c1=O
It is filed as biochemical, Bacillus subtilis. The settings on record: 2 mM Co2+, 30°C.
Excerpt: as §4

Substrate in data set [15]: Cc1cn([C@@H]2O[C@H](COP(=O)(O)OP(=O)(O)OP(=O)(O)O)[C@@H](O)[C@H]2O)c(=O)nc1N
It counts as biochemical, Bacillus subtilis. The conditions noted are these: 2 mM Co2+, 30°C.
Excerpt: as §4

Substrate in data set [16]: O=c1[nH]cc([C@@H]2O[C@H](COP(=O)(O)OP(=O)(O)OP(=O)(O)O)[C@@H](O)[C@H]2O)c(=O)[nH]1
It counts as biochemical, Bacillus subtilis. The settings on record: 2 mM Co2+, 30°C.
Excerpt: as §4

Substrate in data set [17]: C[n+]1cn([C@@H]2O[C@H](COP(=O)(O)OP(=O)(O)OP(=O)(O)O)[C@@H](O)[C@H]2O)c2nc(N)[nH]c(=O)c21
It counts as biochemical, Salmonella enterica. The settings on record: 2 mM Co2+, 37°C. An excerpt: pyrophosphatase-coupled Pi release assay on STM1189

B1: ASMTL-Maf (Homo sapiens) (protein)
chain: MVLCPVIGKLLHKRVVLASASPRRQEILSNAGLRFEVVPSKFKEKLDKASFATPYGYAMETAKQKALEVANRLYQKDLRAPDVVIGADTIVTVGGLILEKPVDKQDAYRMLSRLSGREHSVFTGVAIVHCSSKDHQLDTRVSEFYEETKVKFSELSEELLWEYVHSGEPMDKAGGYGIQALGGMLVESVHGDFLNVVGFPLNHFCKQLVKLYYPPRPEDLRRSVKHDSIPAADTFEDLS
notes: N-terminal Maf domain, residues 1-239, recombinant from E. coli; dimer
With B1, the Km (as a rule, the concentration of substrate that gives half-maximal velocity) in data set [1] amounted to 10.7 ± 0.6 µM; in [2] it was 17.4 ± 0.8 µM; in [3], 16.1 ± 1.5 µM; in data set [4], 10.3 ± 0.7 µM. In addition, the kcat – broadly, the maximal rate divided by the concentration of active sites – amounted to 0.2 ± 0.01 s⁻¹ in [1], 0.8 ± 0.02 s⁻¹ in [2], 1.5 ± 0.1 s⁻¹ in data set [3] and 0.3 ± 0.01 s⁻¹ in [4]. In addition, the kcat/Km – broadly, the turnover number divided by the Michaelis constant – in data set [1] was determined as 19000 M⁻¹ s⁻¹; in data set [2], 46000 M⁻¹ s⁻¹; in data set [3], 93000 M⁻¹ s⁻¹; in data set [4] it was 29000 M⁻¹ s⁻¹.

B2: YhdE (Escherichia coli K-12) (protein)
chain: MTSLYLASGSPRRQELLAQLGVTFERIVTGIEEQRQPQESAQQYVVRLAREKARAGVAQTAKDLPVLGADTIVILNGEVLEKPRDAEHAAQMLRKLSGQTHQVMTAVALADSQHILDCLVVTDVTFRTLTDEDIAGYVASDEPLDKAGAYGIQGLGGCFVRKINGSYHAVVGLPLVETYELLSNFNALREKRDKHDG
notes: full-length recombinant, expressed in E. coli; predicted monomer mass 24 kDa; mixture of dimers and tetramers
B2: the Km in data set [5] came out at 32.0 ± 2.2 µM; in data set [6], 44.8 ± 2.2 µM; in data set [7], 53.0 ± 2.0 µM; in [8] it was 47.2 ± 1.5 µM. Moreover, the kcat in [5] is 18.2 ± 0.7 s⁻¹; in data set [6] it was 9.2 ± 0.2 s⁻¹; in [7] it was 15.4 ± 0.3 s⁻¹; in [8] it was 10.5 ± 0.2 s⁻¹. For the same protein, the kcat/Km turned out to be 570000 M⁻¹ s⁻¹ in data set [5], 210000 M⁻¹ s⁻¹ in [6], 290000 M⁻¹ s⁻¹ in data set [7] and 220000 M⁻¹ s⁻¹ in [8].

B3: YOR111W (Saccharomyces cerevisiae S288C) (protein)
chain: MSGNSQLPPDVIGFICSKYDIILASTSPRRYEILHDIMGITDLKTMVSTFEENLDKMNYSTDPIGYVCDTSWHKAQNIIEILTDYEDENPNEIDKPKLIICADTIIIDKSGRIYEKPKTKEVQKKFLMKFCYEDDEPVNVVTAVTLIKWYGRENFELVPFRDETKVYFDNKIPLRILEEYVESGDGLEVGGGFKIQGQGAILIEKIEGDYYNVVGLPLNKTFKGLYAEANSI
notes: full-length recombinant, expressed in E. coli
In the case of B3, in [9], the Km worked out at 13.0 ± 0.3 µM, the catalytic constant (kcat) stood at 2.2 ± 0.1 s⁻¹ and the kcat/Km was 170000 M⁻¹ s⁻¹. In data set [10], the Km was determined as 20 ± 0.4 µM, the kcat worked out at 5.3 ± 0.1 s⁻¹ and the kcat/Km was 270000 M⁻¹ s⁻¹. In data set [11], the Michaelis constant (Km) turned out to be 29.7 ± 1.4 µM, the kcat was 2.6 ± 0.1 s⁻¹ and the kcat/Km came out at 88000 M⁻¹ s⁻¹.

B4: YceF (Escherichia coli K-12) (protein)
chain: MPKLILASTSPWRRALLEKLQISFECAAPEVDETPRSDESPRQLVLRLAQEKAQSLASRYPDHLIIGSDQVCVLDGEITGKPLTEENARLQLRKASGNIVTFYTGLALFNSANGHLQTEVEPFDVHFRHLSEAEIDNYVRKEHPLHCAGSFKSEGFGITLFERLEGRDPNTLVGLPLIALCQMLRREGKNPLMG
notes: full-length recombinant, expressed in E. coli; mixture of monomers and dimers
Take B4: in [12], the Km was 32.8 ± 3.1 µM, the catalytic constant (kcat) stood at 1.2 ± 0.1 s⁻¹ and the kcat/Km came to 37000 M⁻¹ s⁻¹.

B5: BSU28050 (Bacillus subtilis subsp. subtilis str. 168) (protein)
chain: MTKPLILASQSPRRKELLDLLQLPYSIIVSEVEEKLNRNFSPEENVQWLAKQKAKAVADLHPHAIVIGADTMVCLDGECLGKPQDQEEAASMLRRLSGRSHSVITAVSIQAENHSETFYDKTEVAFWSLSEEEIWTYIETKEPMDKAGAYGIQGRGALFVKKIDGDYYSVMGLPISKTMRALRHFDIRA
notes: full-length recombinant, expressed in E. coli; dimer
In the case of B5, the Km in data set [13] is 25.0 ± 0.8 µM; in data set [14], 4.7 ± 0.2 µM; in data set [15] it was 7.8 ± 0.2 µM; in [16], 5.7 ± 0.3 µM. In addition, the turnover number (kcat) in [13] was determined as 7.1 ± 0.1 s⁻¹; in [14], 2.4 ± 0.1 s⁻¹; in data set [15], 8.5 ± 0.1 s⁻¹; in data set [16] it was 7.2 ± 0.2 s⁻¹. For the same protein, the kcat/Km in data set [13] was determined as 280000 M⁻¹ s⁻¹; in [14], 510000 M⁻¹ s⁻¹; in [15], 1.1e+06 M⁻¹ s⁻¹; in data set [16] it was 1.3e+06 M⁻¹ s⁻¹.

B6: STM1189 (Salmonella enterica subsp. enterica serovar Typhimurium str. LT2) (protein)
chain: MPRLILASTSPWRRALLEKLTIPFECAAPDVDETPMPGEAPRQLVLRLAQAKAQSLAARFPNHLIIGSDQICVLDGEITGKPLTEEKARQQLAKASGNIVTFYTGLALYNSASGHLQTEVEPFDVHFRHLSEAEIDDYVRKEHPLHCAGSFKSEGLGIALFERLEGRDPNTLIGLPLIALCQMLRREGFNPLQQ
notes: as for B3
Turning to B6, in [17], the Km worked out at 30.9 ± 1.2 µM, the turnover number (kcat) was 1.5 ± 0.1 s⁻¹ and the kcat/Km is 49000 M⁻¹ s⁻¹.
